Results as given in IntAct's records for PubMed 17981123.

B1: Serine endoprotease DegS (Escherichia coli (strain K12)), P0AEE3 (parent)
chain: MFVKLLRSVAIGLIVGAILLVAMPSLRSLNPLSTPQFDSTDETPASYNLAVRRAAPAVVNVYNRGLNTNSHNQLEIRTLGSGVIMDQRGYIITNKHVINDADQIIVALQDGRVFEALLVGSDSLTDLAVLKINATGGLPTIPINARRVPHIGDVVLAIGNPYNLGQTITQGIISATGRIGLNPTGRQNFLQTDASINHGNSGGALVNSLGELMGINTLSFDKSNDGETPEGIGFAIPFQLATKIMDKLIRDGRVIRGYIGIGGREIAPLHAQGGGIDQLQGIVVNEVSPDGPAANAGIQVNDLIISVDNKPAISALETMDQVAEIRPGSVIPVVVMRDDKQLTLQVTIQEYPATN
partner: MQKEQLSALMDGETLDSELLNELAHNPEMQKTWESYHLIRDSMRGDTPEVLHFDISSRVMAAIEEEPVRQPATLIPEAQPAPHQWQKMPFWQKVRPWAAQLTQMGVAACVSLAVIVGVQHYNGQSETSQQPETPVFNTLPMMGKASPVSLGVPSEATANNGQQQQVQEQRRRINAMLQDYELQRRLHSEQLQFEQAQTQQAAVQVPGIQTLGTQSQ

Variants of: B1
Settings: with rsea_ecoli rseA

effect of a mutation on the interaction	Variant
increasing interaction	MFVKLLRSVAIGLIVGAILLVAMPSLRSLNPLSTPQFDSTDETPASYNLAVRRAAPAVVNVYNRGLNTNSHNQLEIRTLGSGVIMDQRGYIITNKHVINDADQIIVALQDGRVFEALLVGSDSLTDLAVLKINATGGLPTIPINARRVPHIGDVVLAIGNPYNLGQTITQGIISATGRIGLNPTGRQNFLQTDASINHGNSGGALVNSLGELMGINTLSFDKSNDGETPEGIGFAIPFQLATKIMDKLIRDGRVIAGYIGIGGREIAPLHAQGGGIDQLQGIVVNEVSPDGPAANAGIQVNDLIISVDNKPAISALETMDQVAEIRPGSVIPVVVMRDDKQLTLQVTIQEYPATN [R256A]
decreasing interaction	MFVKLLRSVAIGLIVGAILLVAMPSLRSLNPLSTPQFDSTDETPASYNLAVRRAAPAVVNVYNRGLNTNSHNQLEIRTLGSGVIMDQRGYIITNKHVINDADQIIVALQDGRVFEALLVGSDSLTDLAVLKINATGGLPTIPINARRVPHIGDVVLAIGNPYNLGQTITQGIISATGRIGLNPTGRQNFLQTDASINHGNSGGALVNSLGELMGINTLSFDKSNDGETPEGIGFAIPFQLATKIMDKLIRDGRVIDGYIGIGGREIAPLHAQGGGIDQLQGIVVNEVSPDGPAANAGIQVNDLIISVDNKPAISALETMDQVAEIRPGSVIPVVVMRDDKQLTLQVTIQEYPATN [R256D]
decreasing interaction	MFVKLLRSVAIGLIVGAILLVAMPSLRSLNPLSTPQFDSTDETPASYNLAVRRAAPAVVNVYNRGLNTNSHNQLEIRTLGSGVIMDQRGYIITNKHVINDADQIIVALQDGRVFEALLVGSDSLTDLAVLKINATGGLPTIPINARRVPHIGDVVLAIGNPFNLGQTITQGIISATGRIGLNPTGRQNFLQTDASINHGNSGGALVNSLGELMGINTLSFDKSNDGETPEGIGFAIPFQLATKIMDKLIRDGRVIRGYIGIGGREIAPLHAQGGGIDQLQGIVVNEVSPDGPAANAGIQVNDLIISVDNKPAISALETMDQVAEIRPGSVIPVVVMRDDKQLTLQVTIQEYPATN [Y162F]
disrupting interaction	MFVKLLRSVAIGLIVGAILLVAMPSLRSLNPLSTPQFDSTDETPASYNLAVRRAAPAVVNVYNRGLNTNSHNQLEIRTLGSGVIMDQRGYIITNKHVINDADQIIVALQDGRVFEALLVGSDSLTDLAVLKINATGGLPTIPINARRVPHIGDVVLAIGNPANLGQTITQGIISATGRIGLNPTGRQNFLQTDASINHGNSGGALVNSLGELMGINTLSFDKSNDGETPEGIGFAIPFQLATKIMDKLIRDGRVIRGYIGIGGREIAPLHAQGGGIDQLQGIVVNEVSPDGPAANAGIQVNDLIISVDNKPAISALETMDQVAEIRPGSVIPVVVMRDDKQLTLQVTIQEYPATN [Y162A]
increasing interaction	MFVKLLRSVAIGLIVGAILLVAMPSLRSLNPLSTPQFDSTDETPASYNLAVRRAAPAVVNVYNRGLNTNSHNQLEIRTLGSGVIMDQRGYIITNKHVINDADQIIVALQDGRVFEALLVGSDSLTDLAVLKINATGGLPTIPINARRVPHIGDVVLAIGNPYNLGQTITQGIISATGRIGLNPTGRQNFLQTDASINHGNSGGALVNSLGELMGINTLSFDKSNDGATPEGIGFAIPFQLATKIMDKLIRDGRVIRGYIGIGGREIAPLHAQGGGIDQLQGIVVNEVSPDGPAANAGIQVNDLIISVDNKPAISALETMDQVAEIRPGSVIPVVVMRDDKQLTLQVTIQEYPATN [E227A]
decreasing interaction	MFVKLLRSVAIGLIVGAILLVAMPSLRSLNPLSTPQFDSTDETPASYNLAVRRAAPAVVNVYNRGLNTNSHNQLEIRTLGSGVIMDQRGYIITNKHVINDADQIIVALQDGRVFEALLVGSASLTDLAVLKINATGGLPTIPINARRVPHIGDVVLAIGNPYNLGQTITQGIISATGRIGLNPTGRQNFLQTDASINHGNSGGALVNSLGELMGINTLSFDKSNDGETPEGIGFAIPFQLATKIMDKLIRDGRVIRGYIGIGGREIAPLHAQGGGIDQLQGIVVNEVSPDGPAANAGIQVNDLIISVDNKPAISALETMDQVAEIRPGSVIPVVVMRDDKQLTLQVTIQEYPATN [D122A]
increasing interaction	MFVKLLRSVAIGLIVGAILLVAMPSLRSLNPLSTPQFDSTDETPASYNLAVRRAAPAVVNVYNRGLNTNSHNQLEIRTLGSGVIMDQRGYIITNKHVINDADQIIVALQDGRVFEALLVGSDSLTDLAVLKINATGGLPTIPINARRVPHIGDVVLAIGNPYNLGQTITQGIISATGRIGLNPTGRQNFLQTDASINHGNSGGALVNSLGELMGINTLSFDKSNDGETPEGIGFAIPFQLATDIMDKLIRDGRVIRGYIGIGGREIAPLHAQGGGIDQLQGIVVNEVSPDGPAANAGIQVNDLIISVDNKPAISALETMDQVAEIRPGSVIPVVVMRDDKQLTLQVTIQEYPATN [K243D]
increasing interaction	MFVKLLRSVAIGLIVGAILLVAMPSLRSLNPLSTPQFDSTDETPASYNLAVRRAAPAVVNVYNRGLNTNSHNQLEIRTLGSGVIMDQRGYIITNKHVINDADQIIVALQDGRVFEALLVGSDSLTDLAVLKINATGGLPTIPINARRVPHIGDVVLAIGNPYNLGQTITQGIISATGRIGLNPTGRQNFLQTDASINHGNSGGALVNSLGELMGINTLSFDKSNDGETPEGIGFAIPFQLATKIMDKLIRDGRVIRGYIGIGGREIAPLHAQGGGIDQLQGIVVNEVSPDGPAANAGIQVNDLIISVDNKPAISALETMAQVAEIRPGSVIPVVVMRDDKQLTLQVTIQEYPATN [D320A]
decreasing interaction	MFVKLLRSVAIGLIVGAILLVAMPSLRSLNPLSTPQFDSTDETPASYNLAVRRAAPAVVNVYNRGLNTNSHNQLEIRTLGSGVIMDQRGYIITNKHVINDADQIIVALQDGRVFEALLVGSDSLTDLAVLKINATGGLPTIPINARRVPHIGDVVLAIGNPYNLGQTITQGIISATGAIGLNPTGRQNFLQTDASINHGNSGGALVNSLGELMGINTLSFDKSNDGETPEGIGFAIPFQLATKIMDKLIRDGRVIRGYIGIGGREIAPLHAQGGGIDQLQGIVVNEVSPDGPAANAGIQVNDLIISVDNKPAISALETMDQVAEIRPGSVIPVVVMRDDKQLTLQVTIQEYPATN [R178A]
